# Target: T1, DLG3_1, Q92796
# T1 sequence (Q92796 125-227, limits assumed, looked up): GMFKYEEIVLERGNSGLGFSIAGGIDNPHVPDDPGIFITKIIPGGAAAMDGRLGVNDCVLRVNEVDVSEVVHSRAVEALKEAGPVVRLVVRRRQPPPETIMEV
# Assay: holdup assay
# Parameters: key: below the threshold = too weak to quantify, mostly under pKd 3.1 to 4
# Conditions: plain residues with an end cap or a label only (N-terminal biotin on a linker: ado-ado)
row,Binder,pKd
1,"TGPWKNETTV [ADGRA1, Q86SQ6]",4.47
2,"RDFDYIADWC [PKN2, Q16513]",below the threshold

# Target: DLG4_2, P78352
# Assay: holdup assay
# Parameters: key: below the threshold = too weak to quantify, mostly under pKd 3.1 to 4
# Conditions: plain residues with an end cap or a label only (N-terminal biotin on a linker: ado-ado)
# Sequence of DLG4_2, P78352 (P78352 155-259): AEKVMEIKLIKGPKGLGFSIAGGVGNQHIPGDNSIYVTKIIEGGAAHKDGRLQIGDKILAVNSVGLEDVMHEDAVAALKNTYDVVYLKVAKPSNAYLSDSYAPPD
row,Binder,pKd
1,"TGPWKNETTV [ADGRA1, Q86SQ6]",5.08
2,"RDFDYIADWC [PKN2, Q16513]",below the threshold

# Target: DLG4_3, P78352
# Assay: holdup assay
# Parameters: key: below the threshold = too weak to quantify, mostly under pKd 3.1 to 4
# Conditions: plain residues with an end cap or a label only (N-terminal biotin on a linker: ado-ado)
# Sequence of DLG4_3, P78352 (P78352 306-403): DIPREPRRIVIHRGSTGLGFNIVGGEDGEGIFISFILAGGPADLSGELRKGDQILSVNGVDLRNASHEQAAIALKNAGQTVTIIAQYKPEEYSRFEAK
row,Binder,pKd
1,"TGPWKNETTV [ADGRA1, Q86SQ6]",4.61
2,"RDFDYIADWC [PKN2, Q16513]",below the threshold

# Target: T2, FRMPD1, Q5SYB0
# T2 sequence (Q5SYB0 52-145, limits assumed, looked up): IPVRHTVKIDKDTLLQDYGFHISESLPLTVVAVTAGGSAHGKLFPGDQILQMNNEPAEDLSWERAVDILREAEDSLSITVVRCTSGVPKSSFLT
# Assay: holdup assay
# Parameters: key: below the threshold = too weak to quantify, mostly under pKd 3.1 to 4
# Conditions: plain residues with an end cap or a label only (N-terminal biotin on a linker: ado-ado)
row,Binder,pKd
1,"TGPWKNETTV [ADGRA1, Q86SQ6]",below the threshold
2,"RDFDYIADWC [PKN2, Q16513]",below the threshold

# Target: FRMPD2_1, Q68DX3
# Assay: holdup assay
# Parameters: key: below the threshold = too weak to quantify, mostly under pKd 3.1 to 4
# Conditions: plain residues with an end cap or a label only (N-terminal biotin on a linker: ado-ado)
# Sequence of FRMPD2_1, Q68DX3 (Q68DX3 770-861): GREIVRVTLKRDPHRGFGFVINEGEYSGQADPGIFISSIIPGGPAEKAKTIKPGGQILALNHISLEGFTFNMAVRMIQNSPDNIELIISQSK
row,Binder,pKd
1,"TGPWKNETTV [ADGRA1, Q86SQ6]",below the threshold
2,"RDFDYIADWC [PKN2, Q16513]",below the threshold

# Target: GRIP2_3, Q9C0E4
# Assay: holdup assay
# Parameters: key: below the threshold = too weak to quantify, mostly under pKd 3.1 to 4
# Conditions: plain residues with an end cap or a label only (N-terminal biotin on a linker: ado-ado)
# Sequence of GRIP2_3, Q9C0E4 (Q9C0E4 238-339): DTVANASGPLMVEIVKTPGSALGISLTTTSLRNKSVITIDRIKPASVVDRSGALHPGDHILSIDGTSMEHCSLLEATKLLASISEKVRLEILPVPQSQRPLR
row,Binder,pKd
1,"TGPWKNETTV [ADGRA1, Q86SQ6]",below the threshold
2,"RDFDYIADWC [PKN2, Q16513]",below the threshold

# Target: HTRA1, Q92743
# Assay: holdup assay
# Parameters: key: below the threshold = too weak to quantify, mostly under pKd 3.1 to 4
# Conditions: plain residues with an end cap or a label only (N-terminal biotin on a linker: ado-ado)
# Sequence of HTRA1, Q92743 (Q92743 360-477): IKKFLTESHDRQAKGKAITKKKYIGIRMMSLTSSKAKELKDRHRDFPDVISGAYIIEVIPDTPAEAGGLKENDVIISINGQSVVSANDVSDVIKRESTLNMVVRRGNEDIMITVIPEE
row,Binder,pKd
1,"TGPWKNETTV [ADGRA1, Q86SQ6]",4.26
2,"RDFDYIADWC [PKN2, Q16513]",4.72

# Target: HTRA2, O43464
# Assay: holdup assay
# Parameters: key: below the threshold = too weak to quantify, mostly under pKd 3.1 to 4
# Conditions: plain residues with an end cap or a label only (N-terminal biotin on a linker: ado-ado)
# Sequence of HTRA2, O43464 (O43464 355-458): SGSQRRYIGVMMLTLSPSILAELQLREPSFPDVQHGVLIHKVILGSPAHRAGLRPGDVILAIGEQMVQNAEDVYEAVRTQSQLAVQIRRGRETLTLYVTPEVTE
row,Binder,pKd
1,"TGPWKNETTV [ADGRA1, Q86SQ6]",below the threshold
2,"RDFDYIADWC [PKN2, Q16513]",5.11

# Target: IL16_1, Q14005
# Assay: holdup assay
# Parameters: key: below the threshold = too weak to quantify, mostly under pKd 3.1 to 4
# Conditions: plain residues with an end cap or a label only (N-terminal biotin on a linker: ado-ado)
# Sequence of IL16_1, Q14005 (Q14005 210-306): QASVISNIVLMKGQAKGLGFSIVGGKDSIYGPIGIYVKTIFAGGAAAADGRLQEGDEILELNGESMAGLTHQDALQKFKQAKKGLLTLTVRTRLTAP
row,Binder,pKd
1,"TGPWKNETTV [ADGRA1, Q86SQ6]",3.83
2,"RDFDYIADWC [PKN2, Q16513]",below the threshold

# Target: IL16_3, Q14005
# Assay: holdup assay
# Parameters: key: below the threshold = too weak to quantify, mostly under pKd 3.1 to 4
# Conditions: plain residues with an end cap or a label only (N-terminal biotin on a linker: ado-ado)
# Sequence of IL16_3, Q14005 (Q14005 1107-1207): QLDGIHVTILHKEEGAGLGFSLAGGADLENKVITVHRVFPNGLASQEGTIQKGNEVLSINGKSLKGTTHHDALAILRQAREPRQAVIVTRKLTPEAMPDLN
row,Binder,pKd
1,"TGPWKNETTV [ADGRA1, Q86SQ6]",below the threshold
2,"RDFDYIADWC [PKN2, Q16513]",below the threshold

# Target: IL16_4, Q14005
# Assay: holdup assay
# Parameters: key: below the threshold = too weak to quantify, mostly under pKd 3.1 to 4
# Conditions: plain residues with an end cap or a label only (N-terminal biotin on a linker: ado-ado)
# Sequence of IL16_4, Q14005 (Q14005 1229-1329): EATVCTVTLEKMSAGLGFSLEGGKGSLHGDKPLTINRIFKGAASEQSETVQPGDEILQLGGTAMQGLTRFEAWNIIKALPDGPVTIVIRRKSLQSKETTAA
row,Binder,pKd
1,"TGPWKNETTV [ADGRA1, Q86SQ6]",below the threshold
2,"RDFDYIADWC [PKN2, Q16513]",below the threshold

# Target: Inadl_4, Q8NI35
# Assay: holdup assay
# Parameters: key: below the threshold = too weak to quantify, mostly under pKd 3.1 to 4
# Conditions: plain residues with an end cap or a label only (N-terminal biotin on a linker: ado-ado)
# Sequence of Inadl_4, Q8NI35 (Q8NI35 547-651): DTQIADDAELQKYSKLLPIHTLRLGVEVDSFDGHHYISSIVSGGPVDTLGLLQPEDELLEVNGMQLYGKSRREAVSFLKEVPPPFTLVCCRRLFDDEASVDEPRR
row,Binder,pKd
1,"TGPWKNETTV [ADGRA1, Q86SQ6]",below the threshold
2,"RDFDYIADWC [PKN2, Q16513]",below the threshold

# Target: Inadl_8, Q8NI35
# Assay: holdup assay
# Parameters: key: below the threshold = too weak to quantify, mostly under pKd 3.1 to 4
# Conditions: plain residues with an end cap or a label only (N-terminal biotin on a linker: ado-ado)
# Sequence of Inadl_8, Q8NI35 (Q8NI35 1425-1530): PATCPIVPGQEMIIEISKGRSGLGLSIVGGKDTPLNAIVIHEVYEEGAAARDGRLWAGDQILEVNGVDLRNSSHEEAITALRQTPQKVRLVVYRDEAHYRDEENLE
row,Binder,pKd
1,"TGPWKNETTV [ADGRA1, Q86SQ6]",below the threshold
2,"RDFDYIADWC [PKN2, Q16513]",4.55

# Target: LIMK2, P53671
# Assay: holdup assay
# Parameters: key: below the threshold = too weak to quantify, mostly under pKd 3.1 to 4
# Conditions: plain residues with an end cap or a label only (N-terminal biotin on a linker: ado-ado)
# Sequence of LIMK2, P53671 (P53671 143-248): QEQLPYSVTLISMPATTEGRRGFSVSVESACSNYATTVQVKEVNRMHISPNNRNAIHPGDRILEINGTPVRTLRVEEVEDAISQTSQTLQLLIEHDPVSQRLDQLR
row,Binder,pKd
1,"TGPWKNETTV [ADGRA1, Q86SQ6]",below the threshold
2,"RDFDYIADWC [PKN2, Q16513]",below the threshold

# Target: T3, LIN7B, Q9HAP6
# T3 sequence (Q9HAP6 88-185, limits assumed, looked up): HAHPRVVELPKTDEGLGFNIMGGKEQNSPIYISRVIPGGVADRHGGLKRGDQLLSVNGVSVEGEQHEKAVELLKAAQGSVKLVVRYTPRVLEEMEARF
# Assay: holdup assay
# Parameters: key: below the threshold = too weak to quantify, mostly under pKd 3.1 to 4
# Conditions: plain residues with an end cap or a label only (N-terminal biotin on a linker: ado-ado)
row,Binder,pKd
1,"TGPWKNETTV [ADGRA1, Q86SQ6]",3.54
2,"RDFDYIADWC [PKN2, Q16513]",3.9

# Target: T4, LNX2_2, Q8N448
# T4 sequence (Q8N448 334-432, limits assumed, looked up): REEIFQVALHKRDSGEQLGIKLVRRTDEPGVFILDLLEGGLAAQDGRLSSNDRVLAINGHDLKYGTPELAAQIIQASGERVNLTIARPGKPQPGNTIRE
# Assay: holdup assay
# Parameters: key: below the threshold = too weak to quantify, mostly under pKd 3.1 to 4
# Conditions: plain residues with an end cap or a label only (N-terminal biotin on a linker: ado-ado)
row,Binder,pKd
1,"TGPWKNETTV [ADGRA1, Q86SQ6]",4.93
2,"RDFDYIADWC [PKN2, Q16513]",4.59

# Target: T5, MPP2, Q14168
# T5 sequence (Q14168 180-250, limits assumed, looked up): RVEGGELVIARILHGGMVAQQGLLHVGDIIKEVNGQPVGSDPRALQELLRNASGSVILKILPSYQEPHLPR
# Assay: holdup assay
# Parameters: key: below the threshold = too weak to quantify, mostly under pKd 3.1 to 4
# Conditions: plain residues with an end cap or a label only (N-terminal biotin on a linker: ado-ado)
row,Binder,pKd
1,"TGPWKNETTV [ADGRA1, Q86SQ6]",below the threshold
2,"RDFDYIADWC [PKN2, Q16513]",3.49

# Target: NHERF4_1, Q86UT5-2
# Assay: holdup assay
# Parameters: key: below the threshold = too weak to quantify, mostly under pKd 3.1 to 4
# Conditions: plain residues with an end cap or a label only (N-terminal biotin on a linker: ado-ado)
# Sequence of NHERF4_1, Q86UT5-2 (Q86UT5 other isoform, or with tags, fused parts or gaps): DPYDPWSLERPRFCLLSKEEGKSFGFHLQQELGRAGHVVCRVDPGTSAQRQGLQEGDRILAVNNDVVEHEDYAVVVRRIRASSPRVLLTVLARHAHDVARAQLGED
row,Binder,pKd
1,"TGPWKNETTV [ADGRA1, Q86SQ6]",below the threshold
2,"RDFDYIADWC [PKN2, Q16513]",4.34

# Target: PARD3_3, Q8TEW0
# Assay: holdup assay
# Parameters: key: below the threshold = too weak to quantify, mostly under pKd 3.1 to 4
# Conditions: plain residues with an end cap or a label only (N-terminal biotin on a linker: ado-ado)
# Sequence of PARD3_3, Q8TEW0 (Q8TEW0 582-685): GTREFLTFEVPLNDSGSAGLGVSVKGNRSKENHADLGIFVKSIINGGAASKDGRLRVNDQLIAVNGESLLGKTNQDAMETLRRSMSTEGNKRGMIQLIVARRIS
row,Binder,pKd
1,"TGPWKNETTV [ADGRA1, Q86SQ6]",below the threshold
2,"RDFDYIADWC [PKN2, Q16513]",3.76

# Target: T6, PCLO, Q9Y6V0
# T6 sequence (Q9Y6V0 4491-4600, limits assumed, looked up): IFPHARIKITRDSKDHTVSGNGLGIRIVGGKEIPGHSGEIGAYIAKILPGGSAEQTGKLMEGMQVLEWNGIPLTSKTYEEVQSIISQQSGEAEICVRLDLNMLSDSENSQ
# Assay: holdup assay
# Parameters: key: below the threshold = too weak to quantify, mostly under pKd 3.1 to 4
# Conditions: plain residues with an end cap or a label only (N-terminal biotin on a linker: ado-ado)
row,Binder,pKd
1,"TGPWKNETTV [ADGRA1, Q86SQ6]",below the threshold
2,"RDFDYIADWC [PKN2, Q16513]",below the threshold

# Target: PDLIM1, O00151
# Assay: holdup assay
# Parameters: key: below the threshold = too weak to quantify, mostly under pKd 3.1 to 4
# Conditions: plain residues with an end cap or a label only (N-terminal biotin on a linker: ado-ado)
# Sequence of PDLIM1, O00151 (O00151 1-87): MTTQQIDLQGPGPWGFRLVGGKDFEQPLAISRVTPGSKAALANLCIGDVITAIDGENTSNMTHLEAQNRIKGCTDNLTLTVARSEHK
row,Binder,pKd
1,"TGPWKNETTV [ADGRA1, Q86SQ6]",below the threshold
2,"RDFDYIADWC [PKN2, Q16513]",below the threshold

# Target: T7, PDZRN3_1, Q9UPQ7
# T7 sequence (Q9UPQ7 244-349, limits assumed, looked up): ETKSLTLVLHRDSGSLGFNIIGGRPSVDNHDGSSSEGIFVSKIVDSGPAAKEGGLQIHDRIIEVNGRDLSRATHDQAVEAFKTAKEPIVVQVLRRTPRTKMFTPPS
# Assay: holdup assay
# Parameters: key: below the threshold = too weak to quantify, mostly under pKd 3.1 to 4
# Conditions: plain residues with an end cap or a label only (N-terminal biotin on a linker: ado-ado)
row,Binder,pKd
1,"TGPWKNETTV [ADGRA1, Q86SQ6]",4.07
2,"RDFDYIADWC [PKN2, Q16513]",below the threshold

# Target: T8, RHPN1, Q8TCX5
# T8 sequence (Q8TCX5 508-602, limits assumed, looked up): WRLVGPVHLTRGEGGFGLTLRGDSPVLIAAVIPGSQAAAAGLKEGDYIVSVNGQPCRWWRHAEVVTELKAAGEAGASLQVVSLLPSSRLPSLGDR
# Assay: holdup assay
# Parameters: key: below the threshold = too weak to quantify, mostly under pKd 3.1 to 4
# Conditions: plain residues with an end cap or a label only (N-terminal biotin on a linker: ado-ado)
row,Binder,pKd
1,"TGPWKNETTV [ADGRA1, Q86SQ6]",4.55
2,"RDFDYIADWC [PKN2, Q16513]",below the threshold

# Target: T9, SNTA1, Q13424
# T9 sequence (Q13424 82-180, limits assumed, looked up): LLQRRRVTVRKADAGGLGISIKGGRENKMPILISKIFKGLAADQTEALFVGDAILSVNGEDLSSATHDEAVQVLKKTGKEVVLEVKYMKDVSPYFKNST
# Assay: holdup assay
# Parameters: key: below the threshold = too weak to quantify, mostly under pKd 3.1 to 4
# Conditions: plain residues with an end cap or a label only (N-terminal biotin on a linker: ado-ado)
row,Binder,pKd
1,"TGPWKNETTV [ADGRA1, Q86SQ6]",4.59
2,"RDFDYIADWC [PKN2, Q16513]",below the threshold

# Target: T10, SNTG2, Q9NY99
# T10 sequence (Q9NY99 68-166, limits assumed, looked up): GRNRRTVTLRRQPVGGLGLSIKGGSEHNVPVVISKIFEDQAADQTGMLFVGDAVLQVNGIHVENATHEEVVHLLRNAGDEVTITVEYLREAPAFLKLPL
# Assay: holdup assay
# Parameters: key: below the threshold = too weak to quantify, mostly under pKd 3.1 to 4
# Conditions: plain residues with an end cap or a label only (N-terminal biotin on a linker: ado-ado)
row,Binder,pKd
1,"TGPWKNETTV [ADGRA1, Q86SQ6]",4.26
2,"RDFDYIADWC [PKN2, Q16513]",below the threshold

# Target: SNX27, Q96L92
# Assay: holdup assay
# Parameters: key: below the threshold = too weak to quantify, mostly under pKd 3.1 to 4
# Conditions: plain residues with an end cap or a label only (N-terminal biotin on a linker: ado-ado)
row,Binder,pKd
1,"TGPWKNETTV [ADGRA1, Q86SQ6]",5.43
2,"RDFDYIADWC [PKN2, Q16513]",4.32

# Target: T11, TX1BP3, O14907
# T11 sequence (O14907 10-122, limits assumed, looked up): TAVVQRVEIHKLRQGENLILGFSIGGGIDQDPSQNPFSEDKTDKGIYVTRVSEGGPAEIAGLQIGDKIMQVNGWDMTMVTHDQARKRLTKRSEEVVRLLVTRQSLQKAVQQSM
# Assay: holdup assay
# Parameters: key: below the threshold = too weak to quantify, mostly under pKd 3.1 to 4
# Conditions: plain residues with an end cap or a label only (N-terminal biotin on a linker: ado-ado)
row,Binder,pKd
1,"TGPWKNETTV [ADGRA1, Q86SQ6]",4.47
2,"RDFDYIADWC [PKN2, Q16513]",below the threshold

# Source: PMC9482650, “Quantitative fragmentomics allow affinity mapping of interactomes” (Nature Communications, 2022)
